Measurements reported in US20190127444A1 (published 2019).

Columns and labels:
[1] = molecular target: SdgB glycosylated SdrC4 protein (UniProt O86487 51-910); experiment: SPR
[2] = molecular target: LukE, recombinant polyhistidine-tagged variant; experiment: SPR

Row | Binder | Kd [1] [nM] | Kd [2] [nM]
1 | mAb 5133 PRASA A6 HC-L4-E (Table 1 Construct 15) (bispecific antibody) heavy: EVQLVETGGGLVKPGGSLRLSCSASRFSFRDYYMTWIRQAPGKGPEWVSHISGSGSTIYYADSVRGRFTISRDNAKSSLYLQMDSLQADDTAVYYCARGGRATSYYWVHWGPGTLVTVSSASTKGPSVFPLAPSSKSTSGGTAALGCLVKDYFPEPVTVSWNSGALTSGVHTFPAVLQSSGLYSLSSVVTVPSSSLGTQTYICNVNHKPSNTKVDKKVEPKSCDKTHTCPPCPAPPVAGPDVFLFPPKPKDTLMISRTPEVTCVVVDVSHEDPEVKFNWYVDGVEVHNAKTKPREEQYNSTYRVVSVLTVLHQDWLNGKEYKCKVSNAALPAPIAKTISKAKGQPREPQVYTLPPSRDELTKNQVSLTCLVKGFYPSDIAVEWESNGQPENNYKTTPPVLDSDGSFFLYSKLTVDKSRWQQGNVFSCSVMHEALHNRFTQKSLSLSPGKGGGGSGGGGSGGGGSGGGGSMLPAPKNLVVSRVTEDSARLSWTAPDAAFDSFHIEYAEPWVWGEAIVLTVPGSERSYDLTGLKPGTEYVVFIGGVKGGHNSTPLSAIFTT light: EIVLTQSPATLSLSPGERATLSCRASQSVSGYLGWYQQKPGQAPRLLIYGASSRATGIPDRFSGSGSGTDFTLTISRLEPEDFAVYYCQQYGSSPLTFGGGTKLEIKRTVAAPSVFIFPPSDEQLKSGTASVVCLLNNFYPREAKVQWKVDNALQSGNSQESVTEQDSKDSTYSLSSTLTLSKADYEKHKVYACEVTHQGLSSPVTKSFNRGEC | 0.63 | 0.88
2 | mAb 5133 PRASA A6 HC-L4-E-L4-AB (Table 1 Construct 11) (bispecific antibody) heavy: EVQLVETGGGLVKPGGSLRLSCSASRFSFRDYYMTWIRQAPGKGPEWVSHISGSGSTIYYADSVRGRFTISRDNAKSSLYLQMDSLQADDTAVYYCARGGRATSYYWVHWGPGTLVTVSSASTKGPSVFPLAPSSKSTSGGTAALGCLVKDYFPEPVTVSWNSGALTSGVHTFPAVLQSSGLYSLSSVVTVPSSSLGTQTYICNVNHKPSNTKVDKKVEPKSCDKTHTCPPCPAPPVAGPDVFLFPPKPKDTLMISRTPEVTCVVVDVSHEDPEVKFNWYVDGVEVHNAKTKPREEQYNSTYRVVSVLTVLHQDWLNGKEYKCKVSNAALPAPIAKTISKAKGQPREPQVYTLPPSRDELTKNQVSLTCLVKGFYPSDIAVEWESNGQPENNYKTTPPVLDSDGSFFLYSKLTVDKSRWQQGNVFSCSVMHEALHNRFTQKSLSLSPGKGGGGSGGGGSGGGGSGGGGSMLPAPKNLVVSRVTEDSARLSWTAPDAAFDSFHIEYAEPWVWGEAIVLTVPGSERSYDLTGLKPGTEYVVFIGGVKGGHNSTPLSAIFTTGGGGSGGGGSGGGGSGGGGSMLPAPKNLVVSRVTEDSARLSWTAPDAAFDSFWITYEEKFYRGEAIVLTVPGSERSYDLTGLKPGTEYKVWIVGVKGGQGSWPLSAIFTT light: EIVLTQSPATLSLSPGERATLSCRASQSVSGYLGWYQQKPGQAPRLLIYGASSRATGIPDRFSGSGSGTDFTLTISRLEPEDFAVYYCQQYGSSPLTFGGGTKLEIKRTVAAPSVFIFPPSDEQLKSGTASVVCLLNNFYPREAKVQWKVDNALQSGNSQESVTEQDSKDSTYSLSSTLTLSKADYEKHKVYACEVTHQGLSSPVTKSFNRGEC | 0.91 | 1.01
